Measurements taken from article PMC5845890, “Pathophysiological Consequences of Neuronal α-Synuclein Overexpression: Impacts on Ion Homeostasis, Stress Signaling, Mitochondrial Integrity, and Electrical Activity” (Frontiers in Molecular Neuroscience, 2018).

Molecular target: T1, Soluble domain (residues 1-209) of human Bcl-Xl (human, UniProt Q07817-1 1-209)
T1 construct: residues left at the N-terminus after thrombin cleavage of the 6XHis tag; Bcl-Xl, human, soluble domain, residues 1-209; 15N-labelled for the titration with peptides; BMRB 19521 (Follis et al., 2014) was used only for the chemical shift assignment; also called 15N-Bcl-Xl; source: BL21 E. coli (pET15b), purified (nickel-sepharose, thrombin digestion, reverse IMAC, size exclusion chromatography); …
T1 sequence (Q07817 other isoform, or with tags, fused parts or gaps): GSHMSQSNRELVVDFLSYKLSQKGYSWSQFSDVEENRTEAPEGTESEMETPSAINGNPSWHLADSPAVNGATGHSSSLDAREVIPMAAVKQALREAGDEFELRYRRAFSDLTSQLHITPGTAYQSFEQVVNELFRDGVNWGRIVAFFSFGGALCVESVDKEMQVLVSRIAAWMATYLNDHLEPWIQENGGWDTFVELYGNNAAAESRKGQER
Test: NMR titration; 15N-Bcl-Xl with synthetic α-Syn (1-26) peptides; 1H-15N HSQC at 298 K; Hepes 25 mM pH 7.0, NaCl 50 mM, 10% D2O, 1 mM DTT; ΔδN against ligand concentration fitted by a single binding model; Kd averaged over residues 94, 120, 134 and 196 of Bcl-Xl
Settings: both partners purified

Kd: 1950 ± 560 µM
B1: N-terminal acetylated alpha-synuclein peptide 1-26 (peptide)
peptide: not shown
modifications: acetyl group at the N-terminus
notes: α-Synuclein, human, residues 1-26; also called α-Syn (1-26) peptide with an acetyl group at the N-terminus; source: synthetic peptide (Fmoc solid-phase synthesis, reversed-phase HPLC)
